assay: soluble on expression in E. coli; label from the status in PepcDB or PDB records

Q: For “MDFISSLIVGCAQVLCESMNMAERRGHKTDLRQAITDLETAIGDLKAIRDDLTLRIQQDGLEGRSCSNRAREWLSAVQVTETKTALLLVRFRRREQRTRMRRRYLSCFGCADYKLCKKVSAILKSIGELRERSEAIKTDGGSIQVTCREIPIKSVVGNTTMMEQVLEFLSEEEERGIIGVYGPGGVGKTTLMQSINNELITKGHQYDVLIWVQMSREFGECTIQQAVGARLGLSWDEKETGENRALKIYRALRQKRFLLLLDDVWEEIDLEKTGVPRPDRENKCKVMFTTRSIALCNNMGAEYKLRVEFLEKKHAWELFCSKVWRKDLLESSSIRRLAEIIVSKCGGLPLALITLGGAMAHRETEEEWIHASEVLTRFPAEMKGMNYVFALLKFSYDNLESDLLRSCFLYCALFPEEHSIEIEQLVEYWVGEGFLTSSHGVNTIYKGYFLIGDLKAACLLETGDEKTQVKMHNVVRSFALWMASEQGTYKELILVEPSMGHTEAPKAENWRQALVISLLDNRIQTLPEKLICPKLTTLMLQQNSSLKKIPTGFFMHMPVLRVLDLSFTSITEIPLSIKYLVELYHLSMSGTKISVLPQELGNLRKLKHLDLQRTQFLQTIPRDAICWLSKLEVLNLYYSYAGWELQSFGEDEAEELGFADLEYLENLTTLGITVLSLETLKTLFEFGALHKHIQHLHVEECNELLYFNLPSLTNHGRNLRRLSIKSCHDLEYLVTPADFENDWLPSLEVLTLHSLHNLTRVWGNSVSQDCLRNIRCINISHCNKLKNVSWVQKLPKLEVIELFDCREIEELISEHESPSVEDPTLFPSLKTLRTRDLPELNSILPSRFSFQKVETLVITNCPRVKKLPFQERRTQMNLPTVYCEEKWWKALEKDQPNEELCYLPRFVPN”, which “soluble on expression in E. coli” value is on record?
A: The value was “not soluble”.

Q: Which “soluble on expression in E. coli” value does the source give for “MGSDKIHHHHHHMAYEQFAYVYDELMQDVPYPEWVAWVLEQVEPGKRIADIGCGTGTATLLLADHYEVTGVDLSEEMLEIAQEKAMETNRHVDFWVQDMRELELPEPVDAITILCDSLNYLQTEADVKQTFDSAARLLTDGGKLLFDVHSPYKMETLFNGKTYATHAEQSSYIWFADPGEEPLSVVHELTFFIEGEDGRYDRVDETHHQRTYPPEQYITWLREAGFRVCAVTGDFKSDAPTETAERIFFVAEKI” here?
A: Its value is “not soluble”.

Q: For “MGSDKIHHHHHHVTEAQTDPKYYDVVEATWPCLRCEKLGDITLRVGAGGGSRVSAATCDALVSDAQIAQAEAAMQDFDQPRLFMIRDGQDALDGQLERLGYAVMDPVALWTVAPSMLTDVEIPRVTTFCLWEPLAIQREIWATGGIGPERLAIMERATRPKTSILGRWDDKPAGAAFVGMHEGIAMLHALEILPHQRRKGMGVWMMRQAAYWAAEQGATELAVLCTRANAGANALYARLGMQQAGGYHYRIKR”, which “soluble on expression in E. coli” value is on record?
A: The value was “not soluble”.

Q: Which “soluble on expression in E. coli” value does the source give for “MRGFLSGEFELSSVEDAEVVIINSCGVIDFTERKIIRRMLDLKREGKKVVLAGCLTRISKEALSVADSALSPDNLDMVVDAVYSALNGRKLFTERRFIDKAEFSHLKCRLRENAIAIVSISEGCLGKCSFCATKFARGRLRSFSMDAIVREAERAVRAGYREIQLTSQDTGAYGMDKGRAMLPELLRKISEIEGEFRVRVGMMNPQHAVRMLDELINAYSSEKIYKFLHIPVQSGDNRILEDMKRNHTVEDYVEVVEAFRNSFDDVLISTDIIVGFPTETEEAFWKSYELIKETRPDIVNITRYSARKGTPAARLRDIPGWIKKERSRKLTDLMRKIGLENNKRFVGKKLRVLVTKEGKNGRNLARMNSYRAVVTEGAVGEFVEVKIKDCRFNYLIGQLAAEQPQLEHHHHHH” here?
A: The value was “not soluble”.

Q: With “MAVNLLKKNSLALVASLLLAGHVQATELLNSSYDVSRELFAALNPPFEQQWAKDNGGDKLTIKQSHAGSSKQALAILQGLKADVVTYNQVTDVQILHDKGKLIPADWQSRLPNNSSPFYSTMGFLVRKGNPKNIHDWNDLVRSDVKLIFPNPKTSGNARYTYLAAWGAADKADGGDKGKTEQFMTQFLKNVEVFDTGGRGATTTFAERGLGDVLISFESEVNNIRKQYEAQGFEVVIPKTNILAEFPVAWVDKNVQANGTEKAAKAYLNWLYSPQAQTIITDYYYRVNNPEVMDKLKDKFPQTELFRVEDKFGSWPEVMKTHFTSGGELDKLLAAGRN” as the sequence, how does the “soluble on expression in E. coli” value read?
A: Its value is “soluble”.

Q: Which “soluble on expression in E. coli” value does the source give for “MEKQNIAVILARQNSKGLPLKNLRKMNGISLLGHTINAAISSKCFDRIIVSTDGGLIAEEAKNFGVEVVLRPAELASDTASSISGVIHALETIGSNSGTVTLLQPTSPLRTGAHIREAFSLFDEKIKGSVVSACPMEHHPLKTLLQINNGEYAPMRHLSDLEQPRQQLPQAFRPNGAIYINDTASLIANNCFFIAPTKLYIMSHQDSIDIDTELDLQQAENILNHKES” here?
A: Its value is “soluble”.

Q: Which “soluble on expression in E. coli” value does the source give for “MKINLEELKFGTELIKRGFAKMQKGGVIMDVTNAEQAAIAEEAGAVAVMALHKVPADIRAAGGVARMADPKKIQEIIDAVTIPVMAKCRIGHIAEARALEALGVDMIDESEVLTPADVFFHIDKRKFVVPFVCGARSLGEAVRRIWEGAAMIRTKGEAGTGNVVEAVKHMRLINRAIFELQKMNEERIYGVAEKYASRYAELASRVREEMGLESVSRNDVVFEEYTLGEIIDGIYEILLEIRELGRLPVVNFAAGGVATPADAALMMQLGADGVFVGSGIFKSSNPPEYAKAIVEAVQHYDEPEVVAEVSKGLGEAMKGLDVFKLSEDERLQTRGL” here?
A: The value was “not soluble”.

Q: For “MDKFKSMTELKELTKEGKDWEIECENRSSIVTILALHGGGIEPATTELAYTIAHCGDYNYFSFKGMRSKGNNELHVTSTHYDDQIALDLVRGSQRTVAIHGCEGNESVAYIGGSDDRLIELITESLEDIGISVREAPHHISGTQENNIVNMTQTQGGVQLELTAQLRKELFKNRKSSLEHHHHHH”, which “soluble on expression in E. coli” value is on record?
A: The value was “not soluble”.

Q: With “SLDITLVFPHQLFADHPAIQAGRTVALIEDPLLFGTDPQWPLRMHHQRRLLHRASMTVYAEQLRGRGFNVIHQRHDAAPDTQGHLQLLHSAGYRHVHLVDLVDHWLERRLNAFAESVALRVSVLPTPMLLTPADVLEKHFGTGKKPLMAKFYEMQRTRLGVLMDAEGRPVGGRWSFDADNRKKLPKDISVPPIPVATPSTVVNTSRQQLAQENLPGVGKLDGFYYP” as the sequence, how does the “soluble on expression in E. coli” value read?
A: The value was “soluble”.

Q: Which “soluble on expression in E. coli” value does the source give for “MPDSSQLVIGAGLDGLPIAQAMRLANRHGLVAGATGTGKTVTLQRLAEAFSDAGVAVFAADIKGDLCGLGAAGNPQGKVAERIAGMPWLKHQPQAYPVTLWDIHGQSGHPLRTTLSEMGPLLLGSLLELTDSQQSALYAAFKVADREGLLLLDLKDLKALLNHLKDNPQLLGDDAALMTTGSSQALLRRLATLEQQGAEALFGEPALQLEDILQPAADGRGRIHLLDASRLVHEAPKVYATFLLWLLAELFEQLPERGDADKPLLALFFDEAHLLFAGTPKALQDRLEQVVRLIRSKGVGVYFVTQSPGDLPDNVLAQLGLRIQHGLRAFTAKEQKSLRAVADGFRPNPAFDAQAVLTELGIGEALVGTLQDKGTPEMVQRVLVAPPQSRIGPLTEAERQALIASSPLLGRYDKPIDRESAYEVLLGRKELAPQDQQPSGKAAAEEPSLADRAGEFLGTAAGQALKSAMRQAANQLGRQLVRGLMGSLLGGSKRR” here?
A: The value was “soluble”.

Q: Which “soluble on expression in E. coli” value does the source give for “MASRRSNAKSRDKPDKYSVLLPTYNERENLPLIVWLLVKYFGESGYNYEIIVIDDGSPDGTLQIAEQLQKIYGADKILLRPRAEKLGLGTAYIHGIKHATGNFVIIMDADLSHHPKFIPQFIEKQKEGGYDLVSGTRYRGDGGVYGWDLRRKLISRGANFVTQVLLRPGASDLTGSFRLYKKEVLEKLVEQCVSKGYVFQMEMIVRARQLGYTIGEVPISFVDRVYGESKLGGNEIVSFLKGLLTLFATT” here?
A: Its value is “not soluble”.

Q: For “MSSFFPLPPAIGKSTGCGVRDESQSLVVWAIEDYSIPESIDPDMINLKIETAIVKKFNLRSSAVVTTWIFGSAENAWLAKSKVKLWESEFRVSLHKGGDKRARLNMMLADVIYYVWNWKAPTNLAVLTENKEEMEQDPKFFRFRQALENKGFFVAVEHPETLINQETAVEDPPDDSPIPYYPSDNPQKLAFWYKEDSEAYRAKYKQVRGTKRTI”, which “soluble on expression in E. coli” value is on record?
A: The value was “soluble”.

Q: For “MSLDNKNKSEVQAQETVQVSYKEKNRESSLASALDVLSRFGGFNFLESTVDGVQNLNPERKARKKIFLTDEQKQEEREVLKNKIDMWIDLLNSSSAVTEMIATSKAKSEAAASHLAKSQLVAVQSVRDMEQAYRGVMLFYKNTEADKVNNVTIVNASKEQLTDLDNPRFIDFVARELKQNYDKLDLRQNYSLLAIPGYLGSNKVLEKWAKIAYENKVMLYTDFADLDKPEDVVELFSSSNMASGEAFKSNTCMTCNWLVGRAGYREIGEEEDLHVSPSIALMGKVYTTLMSQVTAGKKYGGINEIDAVVFPLKKSEISQLEKMGLIPMVNEYGKVMAFSAKTLFNGDNLGLQTYSVVRVFDYITKVLFDFLNRRSFENWSSKTERDLRGQIVQYLDSVQGADRLIEKFKIIRFEQDQKQKDRIYLDIHMTPFFPAKSFVIKLDGTKGDDGTNWNTNYEEGHHHHHH”, which “soluble on expression in E. coli” value is on record?
A: Its value is “not soluble”.

Q: For “MDLMEEMWISRPQRRMTKLSDLSDGSIARIKFYNANKEYTVDSFKIMFAEYQKSIYCNQEVIGVCHSISDYSYIVDYINNSHFRNELDIFTPEFDKKRTHHITSHKSDKDTLQVRVISNEGVIKSYDMSAIEITFEKMYHIIDKERNGYRSGQL”, which “soluble on expression in E. coli” value is on record?
A: Its value is “not soluble”.

Q: Which “soluble on expression in E. coli” value does the source give for “MVHYKLTYFNARGLAEISRQLFHMAGVEFEDERINEEKFSQLKPTFPSGQVPILCIDGAQFSQSTAIARYLARKFGFVGQTAEEELQADEVVDTFKDFIESFRKFVIAVLSGESEEILKNIREEVIKPAVKTYTAYLKAILEKSSSGYLVGNELTWADLVIADNLTTLINAELLDIENDKLLKEFREKIIETPKLKEWLAKRPETRF” here?
A: Its value is “not soluble”.

Q: With “AWVDQTPRSVTKETGESLTINCALKNAADDLERTDWYRTTLGSTNEQKISIGGRYVETVNKGSKSFSLRIRDLRVEDSGTYKCGAYFSDAMSNYSYPIPGEKGAGTVLTVKAA” as the sequence, how does the “soluble on expression in E. coli” value read?
A: Its value is “soluble”.

Q: Which “soluble on expression in E. coli” value does the source give for “VVELDETPVRTLLARQGIYDKNSAIVAYELLYRNSDAENSHVDNLNQSSGEAATSSVLVQLFANLDVNTIIGNKQAFINFTHSHLVQKIPMLLPKNRIVIEVLETVAIDQPLLLNLMELKKQGYQIALDDFVFRNELAPLVDMADIIKIDVLHLDQQQIAEQLLPLKSFRGKLLAEKIEDKQQFNHCVNLGFDFFQGFFLNKP” here?
A: The value was “not soluble”.

Q: Which “soluble on expression in E. coli” value does the source give for “MTIHIDFLDETNEVTAEQIETIERLLAEAAALENVPDGAEVSVTFVDNERIRAMNRDYRGKDAPTDVLSFALEEEGEEEVHIVGADMPPVLGDIVISIPKAKEQAAAYGHSFMRELGFLAVHGFLHLLGYDHGTEEEERVMFAKQEDILARFGLTR” here?
A: Its value is “not soluble”.

Q: Which “soluble on expression in E. coli” value does the source give for “MNLRKPSAWTALALSISTGPAAAGTVTSATLAASTLSPDCLEYKVVGICYWLLCTPFGCKVKTSTKVRHYVPDAVVSSYSNTGENPWVEVSSLSSPTSFAQDGGDGTTSHNNEDNLAKFKNTDVIGHPGGATFSKFASASGYACQGAATPYMPYLLSTLDTIAWRYGVPESAYPEALIPGQREVGGLTSGDMWGSLYPRSGFIHQADDYKAAAVIAQRAGDVVTRRGQIHIYQPLLAKPQSGYWPAGELIETDASTGKWQELTPTLSQSCAVFPNSQPRVQATDGGYAWALWRPYSCCKRQGQTFLGSTDFQLEHHHHHH” here?
A: The value was “not soluble”.

Q: For “MQHHGVTKCNITCSKMTSKIPVALLIHYQQNQASCGKRAIILETRQHRLFCADPKEQWVKDAMQHLDRQAAALTRNG”, which “soluble on expression in E. coli” value is on record?
A: Its value is “soluble”.

Q: Which “soluble on expression in E. coli” value does the source give for “MTRHLAGSFASPPGAEAEGGPVRVTALRAQAFHIPTDLPEADGTFAWNATTLVLVEVEAGGQTGIGYTYSDASIVRLIHHTLAACVIDADAWQVGALWLRMQRQVRNPGRAGLAATAISAVDCALWDLKAKLLGVPLVTLLGAQRANVPIYGSGGFTTYTDEQLREQLVRWVAQDGCRWVKMKIGTHPQEDPQRVAAARAAIGDAGLFVDANGAFSVKEALHYARAFAEQGVEWFEEPVSSDDLRGLALLRERAPARMEIAAGEYAYTLDDFRLLLEAHAVDVLQADVSRCGGVTGFLQAAALCEAFHVPLSAHCAPALHLHVASAVRNLRHQEWFHDHVRIEAMLFDGAPRPSNGAIAPDMARPGCGLAFRHGDAQRYLIH” here?
A: The value was “soluble”.

— the DeepSol protein solubility set
